How the values were obtained:
[1] = target: CD3 epsilon on human T-cells (human) (UniProt P07766); test: T cell binding
recombinant CD3 = recombinant CD3 (UniProt P07766); test: SPR
recombinant CD3, sequence (P07766 23-126): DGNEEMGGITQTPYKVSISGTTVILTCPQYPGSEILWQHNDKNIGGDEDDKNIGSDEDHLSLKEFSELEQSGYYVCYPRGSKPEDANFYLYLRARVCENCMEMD

CD3 epsilon on human T-cells (human), sequence (P07766 23-207 limits assumed): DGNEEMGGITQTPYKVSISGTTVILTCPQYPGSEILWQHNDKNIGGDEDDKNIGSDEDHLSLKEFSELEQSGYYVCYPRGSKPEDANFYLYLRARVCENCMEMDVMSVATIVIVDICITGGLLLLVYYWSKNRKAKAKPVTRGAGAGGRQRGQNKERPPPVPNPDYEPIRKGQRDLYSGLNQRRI

B1: CD3B450-LH-ScFv (scFv, V domains shown, not shown: small tags and cut ends)
VH: QVQLQQSGPGLVKPSQTLSLTCAISGDSVFNNNAAWSWIRQSPSRGLEWLGRTYYRSKWLYDYAVSVKSRITINPDTSKNQFSLQLNSVTPEDTAVYYCARGYSSSFDYWGQGTLVTVSS
VL: QSALTQPASVSGSPGQSITISCTGTSSNIGTYKFVSWYQQHPGKAPKVMIYEVSKRPSGVSNRFSGSKSGNTASLTISGLQAEDEADYYCVSYAGSGTLLFGGGTKLTVL
B1 was tested, and the EC50 [1] was > 300 nM and the Kd (recombinant CD3) was 50 to 100 nM.

— patent publication US20240166737A1
